First the molecules themselves.
B1: PRT-584 (protein)
chain: MANQEIRYSEETPKTITSVWTKGVTPPTNFIYNEDVLHAPYIANQGWYDITKTFNGKDDLLCGAATAGNMLHWWFDQNKEQIERYLKKHPEKQKINFNGEQMFDVKEAIDTKDSQTNSKLFEYFKDKAFPYLSTKHLGVFPDHVIDMFINGYRLSLTNHGPTPVKRQTKDPRGGIFDAVFTRGDQSKLLTSRHDFKEKTLNEISDLIKQELTEGKALGLSHTYANVRINHVINLWGADFNAEGNLEAIYVTDSDSNASIGMKKYYVGVNSAGKVAISAKEIEGDNIGAQVLGLFTLSTGQDIWEQTNLEHHHHHH
B2: PRT-590 (protein)
chain: MANQEIRYSEETPSTVTSVWTKGVTPPTDFIQNEDVLHAPYIANQGWYDITKTFNGKDDLLCGAATAGNMLHWWFDQNKEQIENYLKKHPEKQKINFNGEQMFDVKEAIDTKDSQTDSALFEYFKDKAFPYLSTKHLGVFPDHVIDMFINGYRLSLTNHGPTPVKRGTKDPRGGIFDAVFTRGDQSKLLTSRHDFKEKTLNEISDLIKQELTEGKALGLSHTYANVRINHVINLWGADFNAEGNLEAIYVTDSDSNASIGMKKYYVGVNSAGKVAISAKEIEGDNIGAQVLGLFTLSTGQDIWNQTNLEHHHHHH
B3: PRT-600 (protein)
chain: MANQEIRYSEETPSTITSVWTKGVTPPTDFIQNEDVLHAPYIANQGWYDITKTFNGKDDLLCGAATAGNMLHWWFDQNKEQIENYLKKHPEKQKINFNGEQMFDVKEAIDTKDSQTDSALFEYFKDKAFPYLSTKHLGVFPDHVIDMFINGYRLSLTNHGPTPVKRGTKDPRGGIFDAVFTRGDQSKLLTSRHDFKEKTLNEISDLIKQELTEGKALGLSHTYANVRINHVINLWGADFNAEGNLEAIYVTDSDSNASIGMKKYYVGVNSAGKVAISAKEIEGDNIGAQVLGLFTLSTGQDSWNQTNLEHHHHHH
B4: PRT-404 (protein)
chain: MVTSVWTKGVTPPADFTQGEDVFHAPYVANQGWYDITKTFNGKDDLLCGAATAGNMLHWWFDQNKEYIEAYLKKHPEKQKIMFGDQELLDVRKAINTKGSQKNSELFNYFRDKAFPNLSARRLGVMPDLVLDMFINGYYLNVTKTQTTDVNRTYQEKDKRGGIFDAVFTRGDQSKLLTSRHDFKEKGLKEISDLIKQELTEGKALGLSHTYANVRIGHVINLWGADFDSDGNLKAIYVTDSDSNASIGMKKYFVGVNSAGKVAISAKEIKEDNIGAQVLGLFTLSTGQDIWNQTN
B5: PRT-397 (protein)
chain: MVTSVWTKGVTPPADFTQGEDVFHAPYVANQGWYDITKTFNGKDDLLCGAATAGNMLHWWFDQNKEYIEAYLKKHPEKQKIMFGDQELLDVRKAINTKGSQKNSELFNYFRDKAFPNLSARRLGVMPDLVLDMFINGYYLNVTKTQTTDVNRTYQEKDKRGGIFDAVFTRGDQSKLLTSRHDFKEKGLKEISDLIKQELTEGKALGLSHTYANVGINHVINLWGADFDSDGNLKAIYVTDSDSNASIGMKKYFVGVNSAGKVAISAKEIKEDNIGAQVLGLFTLSTGQDIWNQTN
B6: PRT-412 (protein)
chain: MVTSVWTKGVTPPADFTQGEDVFHAPYVANQGWYDITKTFNGKDDLLCGAATAGNMLHWWFDQNKEYIEAYLKKHPEKQKIMFGDQELLDVRKAINTKGSQKNSELFNYFRDKAFPNLSARRLGVMPDLVLDMFINGYYLNVTKTQTTDVNRTYQEKDKRGGIFDAVFTRGDQSKLLTSRHDFKEKGLKEISDLIKQELTEGKALGLSHTYANVRINHVINLWGADFDSDGNLKAIYVTDSDSNASIGMKKYFVGVNAAGKVAISAKEIKEDNIGAQVLGLFTLSTGQDIWNQTN
B7: PRT-405 (protein)
chain: MVTSVWTKGVTPPADFTQGEDVFHAPYVANQGWYDITKTFNGKDDLLCGAATAGNMLHWWFDQNKEYIEAYLKKHPEKQKIMFGDQELLDVRKAINTKGSQKNSELFNYFRDKAFPNLSARRLGVMPDLVLDMFINGYYLNVTKTQTTDVNRTYQEKDKRGGIFDAVFTRGDQSKLLTSRHDFKEKGLKEISDLIKQELTEGKALGLSHTYANVRINHVINLWGADFDSDGNLKAIYVTDSDSNASIGMKKYGVGVNSAGKVAISAKEIKEDNIGAQVLGLFTLSTGQDIWNQTN
B8: PRT-543 (protein)
chain: MANQEIRYSKNENPNVTIKWVHGIGEPTQSEKEKIEFWWYETTTTKFFNNRKVDPLGDGNQCWAKTDSNMLHWWFVQNEENINQYIEKKNITGKINFNGEQMFDVKEGIDDNQEPEKSYIANTFRTKKAHNLSTKHKGDYIINGLSWYLYGLNNFKNAHGPTPVKKKPKFYGPALFKDVFNRGDGNTPIIVETDFKEYTKKEFEDTLSAALDSKKAIGINIYGSNVDYQHAITLWGAAFDEEENIIAIYVVDNNFKFENRIFPYGIWYEKEGRPYLFNYEINSFVKNRYVGEITTLDKGEAQWQETNLEHHHHHH
B9: PRT-420 (protein)
chain: MTITSVWTKGVTPPTPEDFRYNNEDVLHAPYVANQGWYDITKTFDGKDNLLCGAATAGNMLHWWFDQNKEEIERYLKKHPEKQKIIFNNQEWFDVKAAIDTKDSQTNSKLFNYFRDKAFPNLSARQLGVMPDLVLDMFINGYYLNLGKTQSTDVNRPYQDKDKRGGIFDAVFTRGDQTTLLTARHDLKNKGLNEISDLIKQELTEGKALALSHTYANVRINHVINLWGADFDAEGNLIAIYVTDSDANASIGMKKYFVGVNANGKVAISAKKIEGDNIGAQVLGLFTLSTGQDIWQKLS
B10: PRT-428 (protein)
chain: MTITSVWTKGVTPPTPEDFRYNNEDVLHAPYVANQGWYDITKTFDGKDNLLCGAATAGNMLHWWFDQNKEEIERYLKKHPEKQKIIFNNQELFDVKAAIDTKDSQTNSKLFNYFRDKAFPNLSARQLGVMPDLVLDMFINGYYLNLGKTQSTDVNRPYQDKDKRGGIFDAVFTRGDQTTLLTARHDLKNKGLNEISDLIKQELTEGKALALSHTYANVRINHVINLWGADFDAEGNLIAIYVTDSDTNASIGMKKYFVGVNANGKVAISAKKIEGDNIGAQVLGLFTLSTGQDIWQKLS
B11: PRT-381 (protein)
chain: MVTSVWTKGVTPPTNFTYGEDVLHAPYVANQGWYDITKTFNGKDDLLCGAATAGNMLHWWFDQNKEQIENYLKKHPEKQKINFNGEQMFDVKEAIDTKDSQLDSKLFEYFKEKAFPYLSTKHLGVFPDHVIDMFINGYRLSLTNHGPTPVKRGSKDPRGGIFDAVFTRGDQSKLLTNRHDFKEKTLKEISDLIKQELTEGKALGISHTYANVRINHVINLWGADFDAEGNLEAIYVTDSDSNPSIGMKKYFVGVNSNGKVAISAKEIEEDNIGAQVLGLFTLSTGQDIWNQTN
B12: PRT-389 (protein)
chain: MVTSVWTKGVTPPTNFTYGEDVLHAPYVANQGWYDITKTFNGKDDLLCGAATAGNMLHWWFDQNKEQIENYLKKHPEKQKINFKGEQMFDVKEAIDTKDSQLDSKLFEYFKEKAFPYLSTKHLGVFPDHVIDMFINGYRLSLTNHGPTPVKRGSKDPRGGIFDAVFTRGDQSKLLTNRHDFKEKTLKEISDLIKQELTEGKALGISHTYANVRINHVINLWGADFDAEGNLEAIYVTDSDSNASIGMKKYFVGVNSNGKVAISAKEIEEDNIGAQVLGLFTLSTGQDIWNQTN
B13: PRT-578 (protein)
chain: MANQEIRYSKATPKVITSVWTKGVTPPEDFTYNEDVFHAPYLPNQGWYDITKTFNGKDDLLCGAATAGNMLHWWFDQNKEQIERYLKEHPEKQKINFNGEQMFDVKEAIDTKDSQTNSKLFEYFKDKAFPYLSTKHLGVFPDHVIDMFINGYRLSLTNHGPTPVKEQNKDPRGGIFDAVFTRGDQSKLLTSRHDFKEKTLKEISDLIKQELKEGKALGLSHTYANVRINHVINLWGADFDAEGNLEAIYVTDSDSNASIGMKKYYVGVNSAGKVAISAKEIEGDNIGAQVLGLFTLSTGKDIWEQTNLEHHHHHH

The target in this data set is pooled human IgG (human IgG1, 2, 3 and 4).
Take B1: the Enzyme Activity Endpoint Assay: Fab′2 turned out to be 552 ng/µL, the Enzyme Activity Endpoint Assay: Fc turned out to be 369 ng/µL, the Enzyme Activity Endpoint Assay: IgG stood at 51 ng/µL and the Enzyme Activity Endpoint Assay: scIgG came out at 285 ng/µL.

Take B2: the Enzyme Activity Endpoint Assay: Fab′2 amounted to 954 ng/µL, the Enzyme Activity Endpoint Assay: Fc is 217 ng/µL, the Enzyme Activity Endpoint Assay: IgG was determined as 0 ng/µL and the Enzyme Activity Endpoint Assay: scIgG came to 0 ng/µL.

B3 registered an Enzyme Activity Endpoint Assay: Fab′2 of 992 ng/µL, an Enzyme Activity Endpoint Assay: Fc of 441 ng/µL, an Enzyme Activity Endpoint Assay: IgG of 0 ng/µL and an Enzyme Activity Endpoint Assay: scIgG of 0 ng/µL.

With B4, the Enzyme Activity Endpoint Assay (purified): Fab′2 amounted to 0 ng/µL, the Enzyme Activity Endpoint Assay (purified): Fc turned out to be 0 ng/µL, the Enzyme Activity Endpoint Assay (purified): IgG was 1580 ng/µL and the Enzyme Activity Endpoint Assay (purified): scIgG stood at 0 ng/µL.

B5 showed an Enzyme Activity Endpoint Assay (purified): Fab′2 of 102 ng/µL, an Enzyme Activity Endpoint Assay (purified): Fc of 243 ng/µL, an Enzyme Activity Endpoint Assay (purified): IgG of 93 ng/µL and an Enzyme Activity Endpoint Assay (purified): scIgG of 498 ng/µL.

Protein B6 showed an Enzyme Activity Endpoint Assay (purified): Fab′2 of 518 ng/µL, an Enzyme Activity Endpoint Assay (purified): Fc of 103 ng/µL, an Enzyme Activity Endpoint Assay (purified): IgG of 0 ng/µL and an Enzyme Activity Endpoint Assay (purified): scIgG of 170 ng/µL.

In turn, B7 displayed an Enzyme Activity Endpoint Assay (purified): Fab′2 of 86 ng/µL, an Enzyme Activity Endpoint Assay (purified): Fc of 218 ng/µL, an Enzyme Activity Endpoint Assay (purified): IgG of 406 ng/µL and an Enzyme Activity Endpoint Assay (purified): scIgG of 558 ng/µL.

Turning to B8, the Enzyme Activity Endpoint Assay: Fab′2 came out at 0 ng/µL, the Enzyme Activity Endpoint Assay: Fc was 0 ng/µL, the Enzyme Activity Endpoint Assay: IgG amounted to 1470 ng/µL and the Enzyme Activity Endpoint Assay: scIgG turned out to be 0 ng/µL.

As to B9, the Enzyme Activity Endpoint Assay (purified): Fab′2 came out at 515 ng/µL, the Enzyme Activity Endpoint Assay (purified): Fc was determined as 300 ng/µL, the Enzyme Activity Endpoint Assay (purified): IgG stood at 125 ng/µL and the Enzyme Activity Endpoint Assay (purified): scIgG came to 0 ng/µL.

In the case of B10, the Enzyme Activity Endpoint Assay (purified): Fab′2 was determined as 505 ng/µL, the Enzyme Activity Endpoint Assay (purified): Fc came to 336 ng/µL, the Enzyme Activity Endpoint Assay (purified): IgG stood at 90 ng/µL and the Enzyme Activity Endpoint Assay (purified): scIgG worked out at 119 ng/µL.

B11 displayed an Enzyme Activity Endpoint Assay (purified): Fab′2 of 486 ng/µL, an Enzyme Activity Endpoint Assay (purified): Fc of 334 ng/µL, an Enzyme Activity Endpoint Assay (purified): IgG of 0 ng/µL and an Enzyme Activity Endpoint Assay (purified): scIgG of 194 ng/µL.

In the case of B12, the Enzyme Activity Endpoint Assay (purified): Fab′2 worked out at 479 ng/µL, the Enzyme Activity Endpoint Assay (purified): Fc amounted to 340 ng/µL, the Enzyme Activity Endpoint Assay (purified): IgG turned out to be 32 ng/µL and the Enzyme Activity Endpoint Assay (purified): scIgG stood at 219 ng/µL.

Protein B13 had an Enzyme Activity Endpoint Assay: Fab′2 of 698 ng/µL, an Enzyme Activity Endpoint Assay: Fc of 394 ng/µL, an Enzyme Activity Endpoint Assay: IgG of 0 ng/µL and an Enzyme Activity Endpoint Assay: scIgG of 0 ng/µL.

For the origin of these results see patent publication US20250027068.
